Test results published in patent publication US20230256106A1, “DRUG DELIVERY SYSTEM FOR LOCALLY DELIVERING THERAPEUTIC AGENTS AND USES THEREOF” (priority 2020, published 2023).
Where two headings read alike, the source gives them in different places.

Format: physicochemical
Conditions: about 2.5±1.0 mg/mL conjugate in 10 mM PBS buffer (pH=7.4), 37° C., shaker 100 rpm, average release of free drug per day
[1] = daily ultrafiltration (30 k), free drug by HPLC

| Substance | Release rate (%/day) [1] [%/day] | Release rate (%/day) ([…]) |
| --- | --- | --- |
| conjugate between HA (Sodium hyaluronate) and [4-[[(3R,4R)-1-(2-cyanoacetyl)-4-methyl-3-piperidyl]-methyl-amino]pyrrolo[2,3-d]pyrimidin-7-yl]methyl 2-aminoacetate [Example 68] | 10.81 |  |
| conjugate of 3-((3R,4R)-3-((7-(6-amino-2-azaspiro[3.3]heptane-2-carbonyl)-7H-pyrrolo[2,3-d]pyrimidin-4-yl)(methyl)amino)-4-methylpiperidin-1-yl)-3-oxopropanenitrile and HA [Example 81] | 0.28 |  |
| conjugate of N-(4-(aminomethyl)phenyl)-4-(((3R,4R)-1-(2-cyanoacetyl)-4-methylpiperidin-3-yl)(methyl)amino)-7H-pyrrolo[2,3-d]pyrimidine-7-carbothioamide and HA [Example 23] |  | 1.01 |
| conjugate between HA (Sodium hyaluronate) and [4-[[(3R,4R)-1-(2-cyanoacetyl)-4-methyl-3-piperidyl]-methyl-amino]pyrrolo[2,3-d]pyrimidin-7-yl]methyl 4-aminobutanoate [Example 69] | 16.47 |  |
| conjugate of 2-azaspiro[3.3]heptan-6-yl-4-(((3R,4R)-1-(2-cyanoacetyl)-4-methylpiperidin-3-yl)(methyl)amino)-7H-pyrrolo[2,3-d]pyrimidine-7-carboxylate and HA [Example 73] | 1.90 |  |
| conjugate of 2-chloroethyl 4-[[(3R,4R)-1-(2-cyanoacetyl)-4-methyl-3-piperidyl]-methyl-amino]pyrrolo[2,3-d]pyrimidine-7-carboxylate and HA [Example 57] | 9.28 |  |
